Positions count from the first letter of the chain named.
B1: 139G1C5, fully human anti-PCSK9 antibody (antibody, human IgG1, V domains shown)
VH: QVQLQESGPGLVKPSGTLSLTCAVSGGSISRNNWWSWVRQPPGKGLEWIGEIYHSGSTNYNPSLKSRVTISVDKSKNQFSLKLSSVTAADTAVYYCARDLLGIGLDYWGQGTLVTVSS
VL: EFVLTQSPATLSLSPGERAILSCRASQSFSSYIAWYQQKPGQAPRLLIYDASNRATGIPARFSGSGSGTDFTLTISSLEPEDFAVYYCQQHSNWMYTFGQGTKLEIK
B2: 152G2F7, fully human anti-PCSK9 antibody (antibody, human IgG1, V domains shown)
VH: EVQLVESGGGLVQPGGSLRLSCAASEFTFGGYWMTWVRQAPGKGLEWVANIKQDGSEKYYVDSVKGRFTISRDNAKNSLYLHMNSLRAEDTAVYYCARDRTTMIRGVSLYYYYYGMDVWGQGTAVTVSS
VL: B1 VL with F2I, I20T, F29V, I33L, H91R, M95P, Y96L, Q100G, L104V
B3: 74C10A8, fully human anti-PCSK9 antibody (antibody, human IgG1, V domains shown)
VH: QVQLQESGPGLVKPSETLSLTCSVSGGSINTYYWSWIRQPPGKGLEWIGYIYYSGSTNYNPSLKSRVTISVDTSKNQFSLKLTSVTAADTAVYYCARERFTMVRGVMMDYYYYGMDVWGQGTTVTVSS
VL: DIQLTQSPSFLSASVGDRVTITCRASQGISSYLAWYQQKPGKAPKLLIYAASTLQSGVPSRFSGSGSGTEFTLTISSLQPEDFATYYCQQLNSYPRTFGQGTKVEIK

How the values were obtained:
[1] = biological target: T1, recombinant cyno monkey PCSK9 protein (cyno monkey, UniProt A8T666 31-692 (rhesus entry), limits assumed, biotinylated in the ELISA assays); assay: ELISA; antibody 0.000067 nM
T1 construct: also called cyno PCSK9; Cyno Monkey PCSK9-His

[2] = biological target: T2, recombinant human PCSK9-His protein (Immunogen A) (human, UniProt Q8NBP7 31-692, limits assumed, biotinylated in the ELISA assays); assay: ELISA of PCSK9 binding to LDLR ECD; antibody 0.06 nM
T2 construct: also called hPCSK9-His; His-tagged hPCSK9; not shown: His tag

[3] = biological target: T2, recombinant human PCSK9-His protein …; assay: BLI, Octet Red 96; antibody on AHC sensor
Procedure: Dissociation constants were determined by Octed red 96 (Fortiebio). The detailed operation and methods were followed according to the specifications of the instrument provided by the manufacturer. Briefly, an AHC sensor (Anti-human Fc sensor, Fortiebio) was used for the affinity determination. The anti-PCSK9 antibody was diluted to 10 ug/mL in PBS buffer (pH7.4) containing 0.1% (w/w) BSA and 0.02% (v/v) Tween 20 and incubated with the AHC sensor. […] The reaction mixture was further incubated in PBS buffer (pH7.4) containing 0.1% (v/w) BSA and 0.02% (v/v) Tween 20 at 30° C. for 5 minutes.

[4] = biological target: T2, recombinant human PCSK9-His protein …; assay: ELISA of PCSK9 binding to LDLR ECD; antibody 0.32 nM
[5] = biological target: T2, recombinant human PCSK9-His protein …; assay: ELISA of PCSK9 binding to LDLR ECD; antibody 0.01 nM
[6] = biological target: T1, recombinant cyno monkey PCSK9 protein; assay: ELISA; antibody 66.67 nM
[7] = biological target: T2, recombinant human PCSK9-His protein …; assay: ELISA; antibody 0.067 nM
[8] = biological target: T2, recombinant human PCSK9-His protein …; assay: ELISA; antibody 0.0067 nM
[9] = biological target: T1, recombinant cyno monkey PCSK9 protein; assay: ELISA; antibody 0.00067 nM
[10] = biological target: T2, recombinant human PCSK9-His protein …; assay: ELISA of PCSK9 binding to LDLR ECD; antibody 0 nM
[11] = biological target: T2, recombinant human PCSK9-His protein …; assay: ELISA of PCSK9 binding to LDLR ECD; antibody 200 nM
[12] = biological target: T1, recombinant cyno monkey PCSK9 protein; assay: ELISA; antibody 0 nM
[13] = biological target: T1, recombinant cyno monkey PCSK9 protein; assay: ELISA; antibody 0.67 nM
[14] = biological target: T2, recombinant human PCSK9-His protein …; assay: ELISA; antibody 0.00067 nM
[15] = biological target: T2, recombinant human PCSK9-His protein …; assay: ELISA; antibody 0.67 nM
[16] = biological target: T2, recombinant human PCSK9-His protein …; assay: ELISA; antibody 0 nM
[17] = biological target: T1, recombinant cyno monkey PCSK9 protein; assay: ELISA; antibody 0.067 nM
[18] = biological target: T1, recombinant cyno monkey PCSK9 protein; assay: ELISA; antibody 6.67 nM
[19] = biological target: T1, recombinant cyno monkey PCSK9 protein; assay: ELISA; antibody 0.0067 nM
[20] = biological target: T2, recombinant human PCSK9-His protein …; assay: ELISA; antibody 66.67 nM
[21] = biological target: T2, recombinant human PCSK9-His protein …; assay: ELISA; antibody 0.000067 nM
[22] = biological target: T2, recombinant human PCSK9-His protein …; assay: ELISA; antibody 6.67 nM
[23] = biological target: T2, recombinant human PCSK9-His protein …; assay: ELISA of PCSK9 binding to LDLR ECD; antibody 1.6 nM
[24] = biological target: T2, recombinant human PCSK9-His protein …; assay: SPR, Biacore T200; antibody captured by anti-human Fc
Procedure: Anti-human Fc IgG was immobilized on flow cells 1 and 2: HBS-EP+(10 mM HEPES, 150 mM NaCl, 3 mM EDTA, 0.05% P20, pH 7.4) was used as running buffer, and the immobilization of anti-human Fc IgG was carried out using the immobilization wizard template. Flow cells 1 and 2 of a Series S CM5 sensor chip were activated with freshly-mixed 50 mmol/L NHS and 200 mmol/L EDC. 20 ug/mL of anti-human Fc IgG diluted in 10 mM NaAC (pH 4.5) was injected into the activated flow cells 1 and 2. The remaining active coupling sites were blocked with 1M ethanolamine.
KD measurements were carried out with HBS-EP+ as the running buffer. Each antibody was injected over the CM5 sensor flow cell 2 with a flow rate of 10 uL/min to reach response 230 RU. […] Buffer flow was maintained for 400 seconds for dissociation measurements (30 uL/min). To remove the tested antibody from the surface, 10 mM glycine-HCl pH 1.5 was injected for 20 seconds (30 ulJmin). Flow cell 1 was used as reference flow cell. […] The KD value for each antibody was evaluated using Biacore T200 evaluation software 1.0, and the data was fit with a 1:1 binding model.

[25] = biological target: T2, recombinant human PCSK9-His protein …; assay: ELISA of PCSK9 binding to LDLR ECD; antibody 40 nM
[26] = biological target: T2, recombinant human PCSK9-His protein …; assay: ELISA of PCSK9 binding to LDLR ECD; antibody 8 nM

T1 sequence (A8T666 31-692 limits assumed): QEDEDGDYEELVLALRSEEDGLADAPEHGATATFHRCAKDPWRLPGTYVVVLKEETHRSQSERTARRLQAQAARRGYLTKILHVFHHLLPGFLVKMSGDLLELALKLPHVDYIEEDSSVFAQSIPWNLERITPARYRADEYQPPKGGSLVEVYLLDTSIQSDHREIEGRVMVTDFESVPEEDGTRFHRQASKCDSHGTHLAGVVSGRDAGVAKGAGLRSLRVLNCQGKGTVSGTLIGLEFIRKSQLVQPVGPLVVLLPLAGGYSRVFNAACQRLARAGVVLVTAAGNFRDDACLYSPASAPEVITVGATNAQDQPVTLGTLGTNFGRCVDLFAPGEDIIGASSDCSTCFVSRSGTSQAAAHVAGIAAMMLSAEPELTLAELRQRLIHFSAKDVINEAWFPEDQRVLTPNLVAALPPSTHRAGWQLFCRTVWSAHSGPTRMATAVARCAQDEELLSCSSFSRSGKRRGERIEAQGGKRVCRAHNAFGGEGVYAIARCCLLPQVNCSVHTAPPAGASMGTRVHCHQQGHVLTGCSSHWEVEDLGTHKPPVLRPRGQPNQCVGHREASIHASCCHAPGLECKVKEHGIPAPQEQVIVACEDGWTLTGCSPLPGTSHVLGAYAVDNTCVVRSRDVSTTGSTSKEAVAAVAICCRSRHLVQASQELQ

Row | Binder | OD450 nm [1] [OD450 nm] | OD450 nm [2] [OD450 nm] | Kd [3] [nM] | OD450 nm [4] [OD450 nm] | OD450 nm [5] [OD450 nm] | OD450 nm [6] [OD450 nm] | OD450 nm [7] [OD450 nm] | OD450 nm [8] [OD450 nm] | OD450 nm [9] [OD450 nm] | OD450 nm [10] [OD450 nm] | OD450 nm [11] [OD450 nm] | OD450 nm [12] [OD450 nm] | OD450 nm [13] [OD450 nm] | OD450 nm [14] [OD450 nm] | OD450 nm [15] [OD450 nm] | OD450 nm [16] [OD450 nm] | OD450 nm [17] [OD450 nm] | OD450 nm [18] [OD450 nm] | OD450 nm [19] [OD450 nm] | OD450 nm [20] [OD450 nm] | also measured
1 | B1 | 0.08 | 2.31 | 0.63 | 2.28 | 2.33 | 3 | 1.7 | 0.26 | 0.08 | 2.31 | 1.29 | 0.06 | 3 | 0.08 | 3.05 | 0.06 | 1.84 | 3.01 | 0.29 | 3.04 | koff [3]: 0.000161 s⁻¹; kon [3]: 254000 M⁻¹ s⁻¹; OD450 nm [21]: 0.06 OD450 nm; OD450 nm [22]: 3.06 OD450 nm; OD450 nm [23]: 2.16 OD450 nm; Kd [24]: 0.0709 nM; koff [24]: 2.4e-05 s⁻¹; kon [24]: 240000 M⁻¹ s⁻¹; OD450 nm [25]: 1.35 OD450 nm; OD450 nm [26]: 1.57 OD450 nm
2 | B2 | 0.07 | 2.25 | 2.69 | 2.31 | 2.27 | 2.97 | 0.94 | 0.15 | 0.06 | 2.29 | 1.32 | 0.06 | 1.56 | 0.07 | 2.91 | 0.06 | 0.26 | 2.89 | 0.08 | 3.07 | koff [3]: 0.000453 s⁻¹; kon [3]: 168000 M⁻¹ s⁻¹; OD450 nm [21]: 0.06 OD450 nm; OD450 nm [22]: 3.12 OD450 nm; OD450 nm [23]: 2.19 OD450 nm; OD450 nm [25]: 1.31 OD450 nm; OD450 nm [26]: 1.86 OD450 nm
3 | B3 | 0.13 | 2.28 | 14.5 | 2.32 | 2.31 | 2.86 | 1.52 | 0.23 | 0.06 | 2.4 | 1.41 | 0.06 | 2.1 | 0.08 | 3 | 0.06 | 0.48 | 2.73 | 0.11 | 3.04 | OD450 nm [21]: 0.06 OD450 nm; OD450 nm [22]: 3.04 OD450 nm; OD450 nm [23]: 2.19 OD450 nm; OD450 nm [25]: 1.43 OD450 nm; OD450 nm [26]: 1.76 OD450 nm
